Source: patent US20240400657A1 (MorphoSys, published 2024)

T1: engineered version of human C5aR expressed on CHO cells of the PathHunter β-arrestin assay (DiscoveRx) (human, UniProt P21730 1-350)
T1 sequence (looked up): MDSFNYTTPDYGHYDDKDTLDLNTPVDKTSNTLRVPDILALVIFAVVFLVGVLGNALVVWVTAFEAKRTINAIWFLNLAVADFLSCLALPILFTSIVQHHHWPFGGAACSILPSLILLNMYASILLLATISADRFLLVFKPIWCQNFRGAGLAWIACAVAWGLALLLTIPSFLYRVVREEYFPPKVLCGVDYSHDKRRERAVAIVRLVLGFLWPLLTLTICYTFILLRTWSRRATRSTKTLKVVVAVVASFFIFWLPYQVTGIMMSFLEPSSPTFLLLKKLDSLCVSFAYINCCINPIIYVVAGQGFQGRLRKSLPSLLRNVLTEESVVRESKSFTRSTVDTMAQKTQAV

T2: full length cynomolgus C5aR stably expressed on CHO Flp-In cells (cynomolgus monkey (Macaca fascicularis))
T2 chain: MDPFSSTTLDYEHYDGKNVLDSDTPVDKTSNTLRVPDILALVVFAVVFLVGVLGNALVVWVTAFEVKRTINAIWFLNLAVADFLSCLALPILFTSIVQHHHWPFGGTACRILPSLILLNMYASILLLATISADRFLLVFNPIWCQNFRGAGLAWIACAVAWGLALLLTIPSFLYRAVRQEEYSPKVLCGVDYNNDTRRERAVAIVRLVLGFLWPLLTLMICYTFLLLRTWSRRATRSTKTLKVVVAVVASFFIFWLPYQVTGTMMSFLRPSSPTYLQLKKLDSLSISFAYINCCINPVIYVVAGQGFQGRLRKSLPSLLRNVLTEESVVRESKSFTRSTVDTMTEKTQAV

T3: C5aR expressed on purified human neutrophils (human, UniProt P21730 1-350)
T3 construct: whole, on cells; Used here for all assays on primary human cells (purified neutrophils, granulocytes and monocytes in whole blood, monocyte-derived macrophages); also called human C5aR expressed endogenously; C5aR on human granulocytes, monocytes and macrophages
T3 sequence (looked up): T1 sequence (looked up)

T4: C5aR expressed on purified cynomolgus neutrophils (cynomolgus monkey (Macaca fascicularis))
T4 construct: Endogenous receptor on neutrophils from whole blood of three animals; also called cynomolgus C5aR expressed endogenously
T4 chain: T2 chain

T5: full length human C5aR stably expressed on CHO Flp-In cells (human, UniProt P21730 1-350)
T5 construct: also called human C5aR expressed on CHO cells
T5 sequence: T1 sequence (looked up)

B1: Human C5a (ligand)
chain: TLQKKIEEIAAKYKHSVVKKCCYDGACVNNDETCEQRAARISLGPRCIKAFTECCVVASQLRANISHKDMQLGR
B2: RefMAB #1 (antibody, human IgG1, kappa, V domains shown)
VH: EVQLVESGGGLVQPGGSLRLSCAASGFTFSSYVMHWVRQATGKGLEWVSAIDTGGGTYYADSVKGRFTISRENAKNSLYLQMNSLRAGDTAVYYCARDYYYYASGSYYKAFDIWGQGTMVTVSS
VL: EIVLTQSPGTLSLSPGERATLSCRASQSVSSRYLAWYQQKPGQAPRLLIYGASSRATGIPDRFSGSGSGTDFTLTISRLEPEDFAVYYCQQYGSPLTFGQGTKLEIKR
notes: also called IPH5401; NNC0215-0384

Key:
[1] = target: T1, engineered version of human C5aR …; assay: cell-based or functional assay
[2] = target: T2, full length cynomolgus C5aR stably …; assay: FACS, CHO Flp-In cells expressing cynomolgus C5aR, single IgG concentration
Experimental: (§1) The C5aR-CHO Flp-In™ cell lines were blocked and IgGs were added either in serial dilutions or at a single (high) concentration of 300 nM. For detection of IgG binding, an R-phycoerythrin (R-PE) conjugated anti-human IgG (Fc-gamma fragment specific)2 antibody was added and fluorescence was measured using the FACS Array or Novocyte device.

[3] = target: T3, C5aR expressed on purified human …; assay: FACS on purified human neutrophils, IgG titration
Experimental: (§2) Neutrophils were purified from EDTA-whole blood samples using a MACSexpress® Neutrophil Isolation Cocktail from Miltenyi Biotec. Briefly, using this kit, cells are isolated using magnetic labeling and negative magnetic separation. […] Measurements were done at the FACS Array device. FACS data were evaluated using FlowJo™, entered into GraphPad® Prism (v4.0) and fitted to the sigmoidal dose-response curve using non-linear regression to calculate the EC50.

[4] = target: T3, C5aR expressed on purified human …; assay: cell-based or functional assay
[5] = target: T4, C5aR expressed on purified cynomolgus …; assay: FACS, purified cynomolgus neutrophils, IgG titration
Experimental: as §2

[6] = target: T5, full length human C5aR stably expressed …; assay: FACS on Flp-In CHO cells, IgG titration
Experimental: as §1

[7] = target: T1, engineered version of human C5aR …; assay: cell-based or functional assay; remark: listed apart in the source
[8] = target: T3, C5aR expressed on purified human …; assay: cell-based or functional assay; remark: listed apart in the source

Row | Binder | Activity of human C5a EC50 (nM) in absence of anti-C5aR antibody, β-arrestin recruitment (PathHunter) [1] | binding result [2] | EC50 [3] | IgG concentration for 50% inhibition of CD11b upregulation, granulocytes, 15 nM human C5a [4] | IgG concentration for 50% inhibition of CD11b upregulation, granulocytes, 150 nM human C5a [4] | binding result [5] | Activity of human C5a EC50 (nM) in presence of 50 nM anti-C5aR antibody, β-arrestin recruitment [1] | EC50 [6] | [%] inhibition at 1.2 nM C5a and 50 nM IgG, β-arrestin recruitment [7] | [%] inhibition at 11 nM C5a and 50 nM IgG, β-arrestin recruitment [7] | [%] inhibition at 100 nM C5a and 50 nM IgG, β-arrestin recruitment [7] | CD11b assay, granulocytes, 15 nM C5a, 20 minutes of IgG incubation: IC50 [8] | CD11b assay, granulocytes, 15 nM C5a, 300 minutes of IgG incubation: IC50 [8] | CD11b assay, monocytes, 15 nM C5a, 20 minutes of IgG incubation: IC50 [8] | CD11b assay, monocytes, 15 nM C5a, 300 minutes of IgG incubation: IC50 [8]
1 | B1 | 2.9 nM |  |  |  |  |  |  |  |  |  |  |  |  |  | 
2 | B2 |  | no binding (tested: 300 nM) | 3.1 nM | 12 nM | 291 nM | no binding (tested: ~250 nM) | 10 nM | 1.1 nM | 84.2% | 38.9% | 6.4% | 10.2 nM | 6.5 nM | 1.8 nM | 5.3 nM
